The record followed here is paper doi:10.1101/2023.07.17.549240.

Series [1] deals with T1, WRKY45 (Arabidopsis thaliana, UniProt Q9S763 1-147). In words: EMSA. For orientation: Mobility shift assays separate free from complexed probe on a gel.
For series [2], the target named is T1, WRKY45. In words: competition.

T1 sequence (Q9S763 whole entry): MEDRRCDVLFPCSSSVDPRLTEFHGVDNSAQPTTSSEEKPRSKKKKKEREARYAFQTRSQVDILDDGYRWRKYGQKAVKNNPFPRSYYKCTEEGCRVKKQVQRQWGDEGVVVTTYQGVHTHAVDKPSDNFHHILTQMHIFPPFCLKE

B1: PCS1 W-box probe (dsDNA)
DNA 1: TACAATCCAAATTGACTGTAATTTGTTA
DNA 2: TAACAAATTACAGTCAATTTGGATTGTA
For the molecule B1, in the series with WRKY45 [1], the binding result is on record as “no binding”.

B2: PCS2 W-box1 cold competitor (dsDNA)
DNA 1: ATTGTCAGAGTTTGACTATGGAGCAAAC
DNA 2: GTTTGCTCCATAGTCAAACTCTGACAAT
For the molecule B2, the binding result with WRKY45 [2] is given as “binds”.

B3: PCS2 W-box1 (W1) probe (dsDNA)
DNA 1: ATTGTCAGAGTTTGACTATGGAGCAAAC
DNA 2: GTTTGCTCCATAGTCAAACTCTGACAAT
Consider B3, for which the binding result with WRKY45 [1] is recorded as “binds”.

B4: PCS2 mW-box1 probe (dsDNA)
DNA 1: ATTGTCAGAGTCGCGGAATGGAGCAAAC
DNA 2: GTTTGCTCCATTCCGCGACTCTGACAAT
Turning to B4, in the series with WRKY45 [1], the binding result was “no binding”.
